Measurements from patent publication US8759300.
One block for each binder: values may come before it.

Columns and labels:
[1] = biological target: platelet-derived growth factor-BB (PDGF-BB) (human) (UniProt P01127); experiment: peptide binding to PDGF-BB
[2] = biological target: platelet-derived growth factor-BB (PDGF-BB) (human) (UniProt P01127); experiment: equilibrium binding
[3] = biological target: transforming growth factor-β1 (TGF-β1) (human) (UniProt P01137); experiment: equilibrium binding
[4] = biological target: platelet-derived growth factor-BB (PDGF-BB) (human) (UniProt P01127); experiment: method not restated (same value as FN634-648 in paragraph 247)

transforming growth factor-β1 (TGF-β1) (human), sequence (P01137 279-390 limits assumed): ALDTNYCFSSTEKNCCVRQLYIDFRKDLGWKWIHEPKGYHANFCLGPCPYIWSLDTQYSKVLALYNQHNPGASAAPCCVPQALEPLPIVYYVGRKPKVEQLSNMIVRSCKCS
platelet-derived growth factor-BB (PDGF-BB) (human), sequence (P01127 82-190 limits assumed): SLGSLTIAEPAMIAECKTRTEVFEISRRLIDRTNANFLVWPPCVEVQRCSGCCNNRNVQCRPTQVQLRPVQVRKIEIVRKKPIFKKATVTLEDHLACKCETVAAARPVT

B2: peptide 1A (FN634-648) … (peptide)
peptide: QPSHISKYILRWRPK
Kd [1]: 450 nM | Kd [3]: 440 nM | Kd [4]: 450 nM

B3: peptide 1B … (peptide)
peptide: ILRWRPKNSVGRWK
Kd [3]: 400 nM

B4: FN630-648 … (peptide)
peptide: WNAPQPSHISKYILRWRPK
Kd [1]: 340 nM

B5: peptide 4 (FN2043-2067) … (peptide)
peptide: QPSVGQQMIFEEHGFRRTTPPTTAT
Kd [3]: 100 nM

Continued by falling Kd [3], values first:

Kd [1]: 110 nM | Kd [3]: 270 nM
B7: peptide 2 (FN680-704) … (peptide)
peptide: QLISIQQYGHQEVTRFDFTTTSTST

Kd [3]: 140 nM
B6: peptide 3 … (peptide)
peptide: NGQTPIQRTIKPDVRSYTITGLQPGT

Kd [1]: 250 nM | Kd [2]: 250 nM | Kd [3]: 130 nM
B1: peptide 1 (FN634-658) … (peptide)
peptide: QPSHISKYILRWRPKNSVGRWKEAT
